According to publication PMC8760232, “Is reduced ferredoxin the physiological electron donor for MetVF-type methylenetetrahydrofolate reductases in acetogenesis? A hypothesis” (International Microbiology, 2021):
Values belong to the molecule of their own block, whether it stands above or below them.

What was measured:
[1] = biological target: MetVF heterodimer of the methylene-tetrahydrofolate reductase (MTHFR) from Clostridium ljungdahlii (Clostridium ljungdahlii (endogenous in C. ljungdahlii)); experiment: SEC; analytical gel filtration of the purified MTHFR on Superdex 200 Increase, column calibrated with high- and low-molecular weight kits; dimer of MetVF heterodimers
purified protein = substrate: Nc1nc2c(c(=O)[nH]1)N1CN(c3ccc(C(=O)N[C@@H](CCC(=O)O)C(=O)O)cc3)C[C@H]1CN2; experiment: purified protein; assay type: biochemical, Clostridium ljungdahlii; settings: reduced ferredoxin as electron donor, 50 mM NaPi, 2 mM DTE, pH 7, 37 °C, methylene-THF made from formaldehyde and THF

stoichiometry N [1]: 2
Molecule: MetVF heterodimer of the methylene-tetrahydrofolate reductase (MTHFR) from Clostridium ljungdahlii (complex)

B1: MetVF-type methylene-THF reductase (MTHFR) of C. ljungdahlii (Clostridium ljungdahlii DSM 13528) (protein)
chain: MSLLKEAFEKGEFAITAEMAPPKGTDLSHLIECAKKIKGRVQGVNVTDFQSATLKATSLATCKVLKDAGLEPVFQITGRDRNRIAIQGELLSAGVFEIENVLALTGDYTATGDHPGAKPVYDLDSVGILQVASILNGGKDMGGTDLKGKPDFFLGACVTPRYDPLELQVIKMKKKIKAGAKFFQTQAVYDMETLKKFKEETKAQGVDAKVMVGIIPLKSAGMAKYMNKNVPGIFVPDELIDRMKNAEDKVQEGIKIAGEFIKAVKESGLCDGVHIMAIGAEENVPLILDEAGL
notes: native enzyme purified from C. ljungdahlii cytoplasm, untagged; (MetVF)2 dimer of heterodimers, ~106 kDa native; MetF 33-35 kDa, MetV 23 kDa; FMN and 4Fe-4S clusters; with Methylene-tetrahydrofolate reductase C-terminal-like domain-containing protein
K0.5 (purified protein): 70 µM
